Test results as given in article PMC10615782.

Biological target: Chikungunya virus-like particles (strain 37997) (chikungunya virus) (UniProt Q8JUX5)
Assay: BLI

Monovalent mouse MXRA8 cleaved from the Fc fusion (from UniProt Q9DBV4 22-336) (domain or fragment)
Kd: 68 nM
